US20040072152A1
“And” between values parts separate entries of the source, which are not always exact repeats. Equal values may be shown once.

Legend:
Settings in all cases: scale: ratio of % tetramer-binding CD8alpha-high cells, bound/unbound fraction
[1] = molecular target: E-selectin expressed on CHO-E cells (UniProt P16581); assay: un-manipulated PBMC, one hour rotary co-incubation with CHO-E monolayer, flow cytometry with tetramer B7-RPR
[2] = molecular target: E-selectin expressed on CHO-E cells (UniProt P16581); assay: peptide-stimulated PBMC, one hour rotary co-incubation with CHO-E monolayer, flow cytometry with tetramer B7-APA
[3] = molecular target: E-selectin expressed on CHO-E cells (UniProt P16581); assay: peptide-stimulated PBMC, one hour rotary co-incubation with CHO-E monolayer, flow cytometry with tetramer B7-RPR

CHO-E-selectin enrichment [1]: 13.2 and 10.1 and 5.6
CHO-E-selectin enrichment [2]: 8.3
CHO-E-selectin enrichment [3]: 9.5
Substance: CLA-associated E-selectin ligand on HSV-2-specific CD8+ T-cells
